Test results: patent US20230189818A1, “RNA-BASED CONTROL OF BOTRYTIS” (priority 2021, published 2023)

B1: GS2651: dsRNA trigger targeting B. cinerea Bcsec15 (XM_024692064.1); trigger SEQ ID NO 52, RNA 56, reverse complement 60 (nucleic acid, listed as Botrytis cinerea)
sense: UAUGCCUGUCAAUAGCGAAGAAGACUUUGAUAAAAUCAUUCAAGUCAGUUGGUAUGUUCCGGACAGACCGAAAGAAGAAUACACAUUCCCCGGUGUAUUACCAUUCUCCCAGAUGUACCCAAUGUGCUGUAUAGAUAUCAGAAAUUUCCUGAAUCGAUUCUACUUCAUAAUGGAUGAUCAUUUUCAACAGCCAAACAUUAUUGAUGAGACACUUAAGAAGUCGAUAGAUGAGCUUCUGUCUGAGGAUAUUU
antisense: AAAUAUCCUCAGACAGAAGCUCAUCUAUCGACUUCUUAAGUGUCUCAUCAAUAAUGUUUGGCUGUUGAAAAUGAUCAUCCAUUAUGAAGUAGAAUCGAUUCAGGAAAUUUCUGAUAUCUAUACAGCACAUUGGGUACAUCUGGGAGAAUGGUAAUACACCGGGGAAUGUGUAUUCUUCUUUCGGUCUGUCCGGAACAUACCAACUGACUUGAAUGAUUUUAUCAAAGUCUUCUUCGCUAUUGACAGGCAUA
B2: GS245: dsRNA trigger targeting B. cinerea Sec18/Cdc48_2 (XM_024693092.1); trigger SEQ ID NO 13, RNA 25, reverse complement 37 (nucleic acid, listed as Botrytis cinerea)
sense: UCAAGAGAGCCGAAGGUCAUAAACGGUCCUGAAGUGCUUAAUAAAUACGUUGGUCAAUCCGAAGAAAAUAUCCGAAAGCUUUUUGCCGAUGCCGAAAAGGAGUACAAGGAAAAGGGAGACGAGAGUGGUCUUCAUAUCAUCAUUUUCGACGAAUUGGAUGCCGUUUGCAAACAAAGAGGAAGUGGAUCAGGUGGCGGAACUGGUGUUGGCGACAGUGUGGUCAAUCAACUGUUGUCUAAGCUUGAUGGUGUUGACCAGCUCAAUAACAUUCUACUUAUUGGAAUGACCAAUCGUAUGGAUAUGAUUGAUGACGCGCUUCUCAGACCCGGACGUUUAGAAGUUCACAUGGAAAUUUCCCUGCCAGAUGAAGCUGGCAGAGCACAAAUUCUUAAGAUUCAUACGUCCAAGAUGUUAAAGAAUGAUGUCAUGGAUACAGAUGUCGAUGUUGCUGAACUUGCUCAUCUAACCAAGAACUUCUCGGGAGCUGAAAUUG
antisense: CAAUUUCAGCUCCCGAGAAGUUCUUGGUUAGAUGAGCAAGUUCAGCAACAUCGACAUCUGUAUCCAUGACAUCAUUCUUUAACAUCUUGGACGUAUGAAUCUUAAGAAUUUGUGCUCUGCCAGCUUCAUCUGGCAGGGAAAUUUCCAUGUGAACUUCUAAACGUCCGGGUCUGAGAAGCGCGUCAUCAAUCAUAUCCAUACGAUUGGUCAUUCCAAUAAGUAGAAUGUUAUUGAGCUGGUCAACACCAUCAAGCUUAGACAACAGUUGAUUGACCACACUGUCGCCAACACCAGUUCCGCCACCUGAUCCACUUCCUCUUUGUUUGCAAACGGCAUCCAAUUCGUCGAAAAUGAUGAUAUGAAGACCACUCUCGUCUCCCUUUUCCUUGUACUCCUUUUCGGCAUCGGCAAAAAGCUUUCGGAUAUUUUCUUCGGAUUGACCAACGUAUUUAUUAAGCACUUCAGGACCGUUUAUGACCUUCGGCUCUCUUGA

Experiments:
[1] = test system: Botrytis cinerea isolate (B05.10); assay: Detached leaf assay (tomato leaflets, lesion size); assay type: in vivo; settings: five days post inoculation, vs untreated inoculated control
Protocol: Plant tissue. Tomato plants, variety Brandywine, were grown in the greenhouse for 3 weeks before harvesting the first true leaves for assays. Nodes 2-4 were prioritized for harvest and only lateral leaflets were used for assays. Leaflets of approximately the same size were used each week and were randomized among treatments. Detached leaflets were immediately brought into the lab for treatment and used within 4 hours of harvest. Detached leaflets were kept at 4° C. until they were treated and placed onto a 1% water agar medium for incubation.
Fungal culture. A Botrytis cinerea isolate (B05.10) was preserved on silica for long-term storage and pulled from these tubes stored at 4° C. for growth on a nutritive medium. Three pellets of silica were added to the center of a Malt Extract Agar (MEA) agar plate and grown at room temperature without parafilm/tape seal for ˜14 days, or until abundant conidia formation, before use.
Treatment of leaflets. Leaflets were treated 24 hours before inoculation and applied using an atomizer to get a fine mist of small droplets entirely covering the leaflet. Silwet L-77 was used as a spreader and added for a 0.03% final concentration (Silwet L-77 brand Phyto Technology Laboratories, S7777 Lot #14D7777001 F). The inoculated control was sprayed with the same volume of sterile DI water with Silwet L-77 in the absence of fungicide or experimental material. Leaflets were spray treated by laying them on a paper towel and holding the atomizer ˜6″ away from the leaflet for applications. Treated leaves were placed on a 1% water agar (10 g Bacto Agar, Difco, in 1 L deionized water, sterilized for 30 minutes at 121° C. and poured when reached a temp of 55° C. into 100×20 mm Petri dishes), with lids of the Petri dishes placed back on before putting Petri dishes under plastic bags to maintain humidity before inoculation the following day. Petri dishes of treated leaflets were left on the lab counter until the following day. Each treatment was replicated ten times with each replicate being a single treated leaflet with two inoculation sites, one on each side of the leaf midvein.
Inoculation. The conidial suspension was prepared by pouring a 7% white grape juice solution onto the culture plate, then scraping the plate with a sterile spatula to dislodge the spores and mycelia. The grape juice solution was prepared by mixing Welch's brand organic white grape juice into sterile deionized water. After dislodging the spores and mycelia of the culture, the suspension was poured through two layers of cheesecloth to remove fungal mycelia and catch the conidial suspension in a clean 50 mL conical tube. Approximately 3 uL of TWEEN 20 was added to conidial suspension to prevent sticking to conical tube. The spore concentration was determined using a Neubauer Improved hemocytometer and inoculum was diluted with more 7% grape juice until a spore concentration of 1×10^5 conidia/mL was reached. Inoculum was used to inoculate host tissue within 2 hours of preparation. Each tomato leaflet was inoculated twice, with inoculation sites placed one per side of the leaflet midvein. A 10 μL volume of spore suspension was placed at each inoculation site using a repeater pipette. Special care was taken not to touch the tip to leaflet surface to avoid contamination between treatments.
Incubation. Petri dishes were placed on lunch trays 6 plates high and moved to an incubator. The incubator was humidity controlled and holds at ˜75% relative humidity. The incubator was kept on 12/12 light/dark days and is set to a temperature of 23° C.
Rating. Measurements were taken at five days post inoculation (DPI). Each lesion that developed was measured using electronic calipers in 2 directions perpendicular to each other to help determine lesion diameter.
Data analysis. Data was analyzed using the SAS JMP statistical program (version 13.2.1) with comparisons made to the untreated, inoculated control. […]

Botrytis cinerea conidia = assay: In vitro liquid-based assay (fungal biomass, 96-well plates, Cytation 5); assay type: cell-based; settings: co-incubated with conidia for three days, vs untreated control
Protocol: Fungal culture. The Botrytis cinerea was plated each week the culture onto Malt Extract Agar (MEA) from long-term storage on silica stored at 4° C. Three pellets of silica were added to the center of a MEA agar plate and grown at room temperature without parafilm/tape seal for 10-14 days before use; a culture 12 days old was typically used.
Spore and media preparation. A pure culture of B. cinerea was flooded with a 0.01% Triton x-100 solution and conidia scraped free with a sterile hockey stick. The suspension was transferred to two, 1.5 mL centrifuge tubes and centrifuged at 8000 rpm for two minutes. The supernatant was discarded, pelleted spores washed twice with sterile water, then resuspended in sterile water. Conidia were quantified using a hemacytometer and diluted to a final concentration of 5000 conidia/mL stock. A stock solution of 1.25× minimal media was prepared for the assay setup using the components below. Once the stock solution was made, the pH was adjusted to 6.0 using NaOH or KOH, then filter sterilized through a 0.2 um filter tower and vacuum pump and stored at 4° C. The Kao & Michayluk Vitamins (100×) is a filter sterilized stock solution. The stock contains vitamins and amino acids as described by Kao & Michayluk. After filter sterilization, 20 mg of 4-Aminobenzoic acid in 100 ml of solution was added.
Experimental setup. Screening assays were setup in 96-well plates with conidia co-incubated with treatments (controls and dsRNAs) for three days before determining fungal biomass. Each treatment was replicated eight times within a single plate. In each well consisted of 12.5 μl of conidia suspension, 25 μl of the treatment, 12.5 μl of sterile deionized water, and 200 μl of minimal media. Each plate was covered with a breath right film and placed in the percival growth chamber at 23° C. on the shaking platform set to 120 RPM with 24-hour lighting. Plates were incubated for 72 hours before determining fungal growth.
Reading assay plate. Fungal biomass was determined by reading plates with the Cytation 5 machine. The program was set to compile 8 photo slices per well under brightfield microscopy with a 2.5× lens to measure biomass.
Data analysis. Analysis will automatically run on Cytation5 to determine final biomass.
Results are shown in Table 1B representing the average reduction in biomass vs. control for tested sequences across several runs described above.

[2] = test system: Botrytis cinerea B05.10 isolate; assay: Greenhouse whole plant assay (tomato 'Lanai', disease severity); assay type: in vivo; settings: 25 g ai/ha; final rating day (rating #3); three runs; four-week-old 'Lanai' tomato plant
Protocol: Plant Tissue: Tomato seedlings, variety “Lanai”, were seeded then thinned to one plant per pot in an 18 cell tray. […] Plants were grown at a 23° C./17° C. day/night temperature with 10 hours of light each 24-hour period. The RH was ambient and plants were fertilized two times a day every day except for Sunday when they received only water. Plants were grown using Fafard brand medium (70-80% sphagnum peat moss, perlite, vermiculite, dolomite limestone and watering agent) for the entire experiment.
Fungal culture. A Botrytis cinerea B05.10 isolate was maintained, and spores were harvested as previously described for detached leaf assays, except a grape juice additive was not used for inoculum preparation.
Treatment of plants. Whole tomato plants were treated ˜24 hours before inoculation using the spray booth. A 0.07% Silwet L-77 solution was used as a spreader and added for a 0.07% final volume in water (Silwet L-77 brand Phyto Technology Laboratories, S7777 Lot #14D7777001 F). The spray booth deck was set to 20″ above the plant canopy and a twinjet 8002EVS nozzle with 100 mesh filter placed into the spray mechanism. The spray boom was calibrated before treatment application with specs as follows: 50 GPA rate, 1.25 MPH speed, 6′ spray length, single pass, and at 45 psi to get a catch of 133 mL in 10 seconds (+/−6 mL). Each treatment was replicated ten times for each experimental run.
Inoculation. Plants were inoculated using a mist-o-matic applicator, which is pressurized by manual pumping. The inoculum suspension was poured into the mist-o-matic immediately before inoculation in the GH space. The containers were only filled half-way and inoculum was applied evenly to the surface of all foliage with even coverage.
Incubation. Plants were incubated inside of a 40″ tall humidity chamber supported by PVC pipe and covered in 3M translucent plastic. A humidifier was inside the chamber and set to low and continuous humidity (filled with tap water). The temperature was D:24-20° C./N:20-18° C. with 15 hours of light, of which 9 hours was with supplemental lighting. RH was ambient and watering occurred everyday by sub-irrigation with the bench being flooded for 10 minutes before draining.
Rating. Tomato plants were rated three times during the two-week experiment with rating starting four days post-inoculation and occurring every three to four days after the initial rating date. Plants were rated for the number of lesions and disease severity, which is the percentage of the plant that was symptomatic including necrotic lesions, pathogen sporulation, and chlorosis.
Data analysis. […] Percent disease severity (%DS) was determined by the percent area of the tomato foliage with symptoms including lesions, chlorosis, necrosis, and wilting. Disease severity was rated at three dates (Rating #) over the 12-day test period. Treatments were compared to the untreated, inoculated control and a chemical standard. Statistical analysis was done using SAS JMP version 13.2.1 with treatments compared to the untreated, inoculated control and a chemical standard using Tukey-Kramer and student's T tests.

| Molecule | Average % Reduction in Lesion Size ([1]; 30 ppm) [%] | Average % Reduction in Lesion Size ([1]; 50 ppm) [%] | Average % Reduction in Biomass (Botrytis cinerea conidia; 25 ppm dsRNA) [%] | Average % Reduction in Biomass (Botrytis cinerea conidia; 150 ppm dsRNA) [%] | % control [2] [%] |
| --- | --- | --- | --- | --- | --- |
| B1 | 9.38 | 12.74 | 21 | 54 |  |
| B2 | 34.78 | 30.52 | 12 | 7 | 33 |
